Molecular target: Atto488-labeled GRB2-SH2 domain (UniProt P62993)
Test: MST

Sequence of Atto488-labeled GRB2-SH2 domain (P62993 60-152): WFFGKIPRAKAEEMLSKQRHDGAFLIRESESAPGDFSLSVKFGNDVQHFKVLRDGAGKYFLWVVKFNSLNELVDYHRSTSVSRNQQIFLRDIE

Kd: 2800 nM
Substance: Dual-phosphorylated H2AX (pH2AX) peptide

Source: paper PMC8336959
